Target: FcγRIIIA (CD16α) on human NK cells in whole blood (human) (UniProt P08637)
Assay: cell-based or functional assay

Sequence of UniProt P08637 (P08637 17-254): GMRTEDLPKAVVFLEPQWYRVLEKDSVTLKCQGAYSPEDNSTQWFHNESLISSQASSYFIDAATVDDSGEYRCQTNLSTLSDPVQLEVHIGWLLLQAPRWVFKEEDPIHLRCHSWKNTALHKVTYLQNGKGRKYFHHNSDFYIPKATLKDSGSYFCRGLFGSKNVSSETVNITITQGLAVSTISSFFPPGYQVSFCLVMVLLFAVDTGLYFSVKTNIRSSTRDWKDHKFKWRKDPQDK

NK cell activation in whole human blood, CD16/CD62L staining, FIG. 11A control row, left lower quadrant (downregulation of CD16α): 45.2
NK cell activation in whole human blood, CD107α/CD69 staining, FIG. 11B control row, right upper quadrant (upregulation of CD107α): 35.3
NK cell activation with IdeZ, FIG. 11A IdeZ row, left lower quadrant: 8.8
NK cell activation with IdeZ, FIG. 11B IdeZ row, right upper quadrant: 1.9
depletion of CD19(+) B cells with IdeZ against WT rituximab in control blood: 63%
residual CD19(+) B cells in blood with IdeZ, FIG. 11C IdeZ row, right lower quadrant: 9.8
Substance: WT rituximab (soluble antibody, wild type hinge)
